Assay results reported in paper PMC5667555.

Target: ARTS-VN (UniProt O43236)
Assay: split reporter

“Bcl-2delBH3-VC (from UniProt P10415 1-239) (natural protein)” showed a percent decrease of the BiFC signal compared to WT Bcl-2 of 47%.
